Sequences and labels used below:
B1: 04-079: rat anti-human GPR20 antibody; heavy chain SEQ ID NO: 12, light chain SEQ ID NO: 17 (antibody, listed as Rattus norvegicus)
heavy: MEWNWVFLFLLSVTAVVHSQVQLQQSGAELAKPGSSVKISCKASGYTFTSYYITWIKQTTGQGLKYIGYINPGSGHTNYNEKFKGKATLTVDKSSSTAFMQLSSLTPDDSAVYYCARGAGGFLRIISKFDYWGQGVMVTVSSAQTTAPSVYPLAPGCGDTTSSTVTLGCLVKGYFPEPVTVTWNSGALSSDVHTFPAVLQSGLYTLTSSVTSSTWPSQTVTCNVAHPASSTKVDKKVERRNGGIGHKCPTCPTCHKCPVPELLGGPSVFIFPPKPKDILLISQNAKVTCVVVDVSEEEPDVQFSWFVNNVEVHTAQTQPREEQYNSTFRVVSALPIQHQDWMSGKEFKCKVNNKALPSPIEKTISKPKGLVRKPQVYVMGPPTEQLTEQTVSLTCLTSGFLPNDIGVEWTSNGHIEKNYKNTEPVMDSDGSFFMYSKLNVERSRWDSRAPFVCSVVHEGLHNHHVEKSISRPPGK
light: METDRLLLWVLLLWVPGSTGDTVLTQSPALAVSLGQRVTISCRASKSVSTYMHWYQQRSGQQPKLLIYSASNLESGVPSRFSGSGSGTDFTLTIDPVKADDITNYYCQQSNELPYTFGAGTKLELKRADAAPTVSIFPPSTEQLATGGASVVCLMNNFYPRDISVKWKIDGTERRDGVLDSVTDQDSKDSTYSMSSTLSLTKADYESHNLYTCEVVHKTSSSPVVKSFNRNEC
modifications: SIGNAL (1)..(19); SIGNAL (1)..(20)
B2: 04-126: rat anti-human GPR20 antibody; heavy chain SEQ ID NO: 22, light chain SEQ ID NO: 27 (antibody, listed as Rattus norvegicus)
heavy: B1 heavy with V16E, Q24R, T54I, I56M, T60A, K65Q, I67V, A119T
light: B1 light with N72T, K98E, T103A
modifications: SIGNAL (1)..(19); SIGNAL (1)..(20)
B3: 04-046: rat anti-human GPR20 antibody; heavy chain SEQ ID NO: 2, light chain SEQ ID NO: 7 (antibody, listed as Rattus norvegicus)
heavy: B1 heavy with V16E, T54S, Y69F, V112I, S127T
light: B1 light with M52I, K98E, A99P, T103A, S110I
modifications: SIGNAL (1)..(19); SIGNAL (1)..(20)

Residue numbers refer to the chain shown, from its start.

T2 sequence (Q99678 whole entry): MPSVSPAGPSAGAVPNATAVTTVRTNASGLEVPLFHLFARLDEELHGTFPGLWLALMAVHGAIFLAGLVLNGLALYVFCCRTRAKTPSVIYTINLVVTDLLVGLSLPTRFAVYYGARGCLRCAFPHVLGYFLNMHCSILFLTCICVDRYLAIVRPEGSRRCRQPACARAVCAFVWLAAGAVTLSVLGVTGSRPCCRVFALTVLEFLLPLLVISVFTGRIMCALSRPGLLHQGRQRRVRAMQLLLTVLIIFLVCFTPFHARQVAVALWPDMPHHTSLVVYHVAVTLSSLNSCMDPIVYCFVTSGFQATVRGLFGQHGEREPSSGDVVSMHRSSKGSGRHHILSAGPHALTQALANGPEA

The target in one assay is T1, human GPR20 with EC2 substituted with a mouse GPR20-derived sequence (Homo sapiens, UniProt Q99678, Y113F).
T1 construct: expressed in transfected cells; host or cells: 293α cells, transient
T1 sequence (Q99678 whole entry Y113F): as the sequence (Q99678 whole entry) above, with Y113F counted along it
Description: Cell-ELISA binding to human/mouse chimeric GPR20 (EC2 substituted). Particulars: hGPR20_mECD2, FIG. 22. As to the method:
(§1) The culture supernatant of the 293a cells transfected with the expression vector prepared in Example 1)-4-1 was removed, and the culture supernatant from each hybridoma was then added to the 293a cells transfected either with pcDNA3.1-hGPR20 or pcDNA3.1. The cells were left standing at 4° C. for 1 hour. The cells in the wells were washed once with PBS (+) supplemented with 5% FBS, and thereafter, Anti-Rat IgG-Peroxidase antibody produced in rabbit (Sigma-Aldrich Co. LLC) that had been 500-fold diluted with PBS (+) supplemented with 5% FBS was added to the wells. The cells were left standing at 4° C. for 1 hour. The cells in the wells were washed three times with PBS (+) supplemented with 5% FBS, and thereafter, OPD chromogenic solution (which had been prepared by dissolving o-phenylenediamine dihydrochloride (Wako Pure Chemical Industries, Ltd.) and H2O2 in an OPD solution (0.05 M trisodium citrate, 0.1 M disodium hydrogen phosphate 12-water; pH 4.5), so that the substances became 0.4 mg/ml and 0.6% (v/v), respectively) was added in an amount of 100 μL/well to the wells. A coloring reaction was carried out with occasional stirring. Thereafter, 1 M HCl was added to the plate (100 μL/well) to terminate the coloring reaction, followed by measurement of the absorbance at 490 nm using a plate reader (ENVISION: PerkinElmer, Inc.).
In the construction of expression vectors given below, using the full-length human GPR20 expression vector pcDNA3.1-hGPR20 produced in Example 1 as a template, each PCR reaction was carried out with the primer set given below. In this reaction, KOD FX DNA polymerase (Toyobo Co., Ltd.) was used, and the reaction was carried out at 15 cycles or 10 cycles each involving 98° C. for 10 seconds, 58° C. for 30 seconds, and 68° C. for 7 minutes. Thereafter, the obtained PCR product was treated with the restriction enzyme Dpnl. […]
For the molecule B1, the “binding activity after substituting EC2 of human GPR20 with that of mouse-derived GPR20” value (“binding activity after substituting EC2” below) is on record as “lost binding activity”.

In the case of B2, the “binding activity after substituting EC2” value is recorded as “lost binding activity”.

As for B3, the “binding activity after substituting EC2” value is recorded as “lost binding activity”.

A further assay addresses T2, human GPR20 (Homo sapiens, UniProt Q99678).
T2 construct: expressed in transfected cells; host or cells: 293T cells, transient, Lipofectamine 2000
The experiment in a line: Analysis of GPR20-binding site of anti-GPR20 antibodies by Cell-ELISA. The following applies: EC1 = positions 1 to 48, EC2 = positions 108 to 125 of human GPR20. As to the method: as §1
Binding sites of anti-human GPR20 antibodies were classified by measuring their binding activity against mouse GPR20, N-terminally FLAG-tagged human GPR20, and human/mouse chimeric GPR20 in which each of four extracellular regions (EC1, EC2, EC3, and EC4) of human GPR20 was substituted with a mouse GPR20-derived sequence, respectively, by Cell-ELISA. FIG. 21 is a diagram of the comparison between the amino acid sequences of human GPR20 (NP_005284) and mouse GPR20 (NP_775541). The four extracellular regions EC1 to EC4 are represented by positions in the amino acid sequence of human GPR20. EC1 corresponds to positions 1 to 48, EC2 corresponds to positions 108 to 125, EC3 corresponds to positions 190 to 196, and EC4 corresponds to positions 260 to 275. […]
Turning to B1, the “GPR20 extracellular region recognized” value is listed as “EC1, EC2”.

Turning to B2, the “GPR20 extracellular region recognized” value is “EC1, EC2”.

Regarding B3, the “GPR20 extracellular region recognized” value is “EC1, EC2”.

For the next assay, the target named is T3, mouse GPR20 (Mus musculus, UniProt Q8BYC4).
T3 construct: using the full-length mouse GPR20 expression vector pcDNA-mGPR20 constructed in 4)-1 as a template; expressed in transfected cells; host or cells: 293α cells, transient
T3 sequence (Q8BYC4 whole entry): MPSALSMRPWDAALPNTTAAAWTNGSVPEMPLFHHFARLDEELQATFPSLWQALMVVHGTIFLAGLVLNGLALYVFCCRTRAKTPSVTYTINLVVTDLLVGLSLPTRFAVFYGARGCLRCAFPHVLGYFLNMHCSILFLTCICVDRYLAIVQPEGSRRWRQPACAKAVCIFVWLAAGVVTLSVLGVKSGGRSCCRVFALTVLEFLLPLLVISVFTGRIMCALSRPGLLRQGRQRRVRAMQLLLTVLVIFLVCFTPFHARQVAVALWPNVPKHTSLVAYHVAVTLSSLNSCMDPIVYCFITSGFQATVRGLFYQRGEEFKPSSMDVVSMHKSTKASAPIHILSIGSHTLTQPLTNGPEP
Description: Cell-ELISA binding to 293α cells expressing mouse GPR20. Particulars: transiently transfected 293α cells, FIG. 22. As to the method:
as §1
According to a method known to a person skilled in the art, cDNA was artificially synthesized based on Ref Seq sequence NM_173365 of mouse GPR20, and then cloned into pcDNA-DEST40 expression vector (Invitrogen Corp.) to construct mouse GPR20 expression vector pcDNA-mGPR20.
The binding activity of the anti-GPR20 antibodies 04-046, 04-079, 04-126, 04-021, 13-024, and 13-048 against 293a cells into which different GPR20 expression vectors were transiently introduced was examined by the same method as the Cell-ELISA method shown in Example 1. […]
For orientation: ELISA stands for enzyme-linked immunosorbent assay.
Consider B1, for which the “binding activity against mouse GPR20” value is reported as “did not bind”.

Consider B2, for which the “binding activity against mouse GPR20” value is on record as “did not bind”.

For the molecule B3, the “binding activity against mouse GPR20” value is “did not bind”.

For another assay, the target named is T4, human GPR20 with EC1 substituted with a mouse GPR20-derived sequence (Mus musculus, UniProt Q8BYC4, A277V/A334G/A336G/DEL187-187/DEL317-317/F111Y/F318R/G190S/I170A/I299V/I338H/I343A/K166R/K271H/K319E/K330R/M323G/N268D/P337R/P351A/Q152R/R229H/R314H/S188T/S192P/S345P/T332S/T347A/T353A/T60A/T88I/V178A/V247I/V269M/V56A/W159C/Y312G).
T4 construct: expressed in transfected cells; host or cells: 293α cells, transient
T4 sequence (Q8BYC4 with tags, fused parts or gaps with the stated changes): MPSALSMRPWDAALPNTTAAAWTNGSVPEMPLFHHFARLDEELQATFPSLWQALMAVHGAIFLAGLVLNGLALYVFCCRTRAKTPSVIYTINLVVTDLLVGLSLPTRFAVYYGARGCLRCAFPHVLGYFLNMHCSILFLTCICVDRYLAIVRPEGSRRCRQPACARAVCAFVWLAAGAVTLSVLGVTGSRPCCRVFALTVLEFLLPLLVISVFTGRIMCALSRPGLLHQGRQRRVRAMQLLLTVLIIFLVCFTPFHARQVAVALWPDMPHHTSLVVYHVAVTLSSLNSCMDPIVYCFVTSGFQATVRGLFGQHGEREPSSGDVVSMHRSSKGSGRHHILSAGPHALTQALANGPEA
Description: Cell-ELISA binding to human/mouse chimeric GPR20 (EC1 substituted). The following applies: hGPR20_mECD1, FIG. 22. As to the method: as §1
An expression vector for human GPR20 with EC1 substituted with a mouse GPR20-derived sequence was constructed using an In-Fusion (registered trademark) HD Cloning Kit (Clontech Laboratories, Inc.). Specifically, using the full-length human GPR20 expression vector pcDNA3.1-hGPR20 produced in Example 1 as a template, a PCR reaction was carried out with the primer set given below and KOD FX DNA polymerase (Toyobo Co., Ltd.) at 10 cycles each involving 98° C. for 10 seconds, 58° C. for 30 seconds, and 68° C. for 7 minutes to amplify a DNA fragment comprising the vector sequence. […]
With B1, the “binding activity after substituting EC1 of human GPR20 with that of mouse-derived GPR20” value (shortened to “binding activity after substituting EC1”) was “lost binding activity”.

Regarding B2, the “binding activity after substituting EC1” value is on record as “lost binding activity”.

With B3, the “binding activity after substituting EC1” value is “lost binding activity”.

The values above are taken from patent publication US11434289B2, “Anti-GPR20 antibody and anti-GPR20 antibody-drug conjugate” (DAIICHI SANKYO COMPANY, LIMITED, priority 2017, dated 2022).
